{"source": "the supplement of paper PMC9112550", "about": "“Optimization of the antimicrobial peptide Bac7 by deep mutational scanning” (BMC Biology, 2022);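 note: peptides expressed intracellularly from a pBAD plasmid library in pooled LB shake-flask culture, induced with 0.3% L-arabinose, DNA abundance read by NGS, three biological replicates, DESeq2 with apeglm shrinkage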", "data": [{"test_system": "Escherichia coli TOP10", "experiment": "shrunken log2 fold change of peptide-encoding DNA abundance (4.5 h post-induction vs induction); higher = less antimicrobial activity (less host growth inhibition)", "conditions": "time post-induction: 4.5 h; library: site-saturation at positions 5, 18, 19, 20", "values": [{"sequence": "RRIRIRPPRLPRPRPRPQTTPRP", "shrunken log2 fold change": -0.38}, {"sequence": "RRIRIRPPRLPRPRPRPQYFPRP", "shrunken log2 fold change": -0.128}, {"sequence": "RRIRIRPPRLPRPRPRPQYVPRP", "shrunken log2 fold change": -0.0421}, {"sequence": "RRIRIRPPRLPRPRPRPRAEPRP", "shrunken log2 fold change": -0.202}, {"sequence": "RRIRIRPPRLPRPRPRPRCFPRP", "shrunken log2 fold change": -0.141}, {"sequence": "RRIRIRPPRLPRPRPRPRDTPRP", "shrunken log2 fold change": -0.534}, {"sequence": "RRIRIRPPRLPRPRPRPRDWPRP", "shrunken log2 fold change": 0.429}, {"sequence": "RRIRIRPPRLPRPRPRPREAPRP", "shrunken log2 fold change": 0.0165}, {"sequence": "RRIRIRPPRLPRPRPRPREEPRP", "shrunken log2 fold change": 0.0171}, {"sequence": "RRIRIRPPRLPRPRPRPRFAPRP", "shrunken log2 fold change": 0.129}, {"sequence": "RRIRIRPPRLPRPRPRPRFWPRP", "shrunken log2 fold change": 0.345}, {"sequence": "RRIRIRPPRLPRPRPRPRGFPRP", "shrunken log2 fold change": 0.199}, {"sequence": "RRIRIRPPRLPRPRPRPRGMPRP", "shrunken log2 fold change": 0.0423}, {"sequence": "RRIRIRPPRLPRPRPRPRIRPRP", "shrunken log2 fold change": -0.204}, {"sequence": "RRIRIRPPRLPRPRPRPRIWPRP", "shrunken log2 fold change": 0.063}, {"sequence": "RRIRIRPPRLPRPRPRPRKYPRP", "shrunken log2 fold change": -0.561}, {"sequence": "RRIRIRPPRLPRPRPRPRMVPRP", "shrunken log2 fold change": 0.0922}, {"sequence": "RRIRIRPPRLPRPRPRPRNCPRP", "shrunken log2 fold change": -0.271}, {"sequence": "RRIRIRPPRLPRPRPRPRNYPRP", "shrunken log2 fold change": 0.0483}, {"sequence": "RRIRIRPPRLPRPRPRPRPAPRP", "shrunken log2 fold change": 0.286}, {"sequence": "RRIRIRPPRLPRPRPRPRQLPRP", "shrunken log2 fold change": -0.27}, {"sequence": "RRIRIRPPRLPRPRPRPRSNPRP", "shrunken log2 fold change": -0.0529}, {"sequence": "RRIRIRPPRLPRPRPRPRSYPRP", "shrunken log2 fold change": -0.381}, {"sequence": "RRIRIRPPRLPRPRPRPRTNPRP", "shrunken log2 fold change": -0.159}, {"sequence": "RRIRIRPPRLPRPRPRPRWMPRP", "shrunken log2 fold change": 0.341}, {"sequence": "RRIRIRPPRLPRPRPRPRYYPRP", "shrunken log2 fold change": -0.372}, {"sequence": "RRIRIRPPRLPRPRPRPSAHPRP", "shrunken log2 fold change": -0.202}, {"sequence": "RRIRIRPPRLPRPRPRPSCVPRP", "shrunken log2 fold change": -0.544}, {"sequence": "RRIRIRPPRLPRPRPRPSDCPRP", "shrunken log2 fold change": -0.497}, {"sequence": "RRIRIRPPRLPRPRPRPSDKPRP", "shrunken log2 fold change": -0.79}, {"sequence": "RRIRIRPPRLPRPRPRPSDYPRP", "shrunken log2 fold change": -0.385}, {"sequence": "RRIRIRPPRLPRPRPRPSEMPRP", "shrunken log2 fold change": -0.553}, {"sequence": "RRIRIRPPRLPRPRPRPSFKPRP", "shrunken log2 fold change": -0.494}, {"sequence": "RRIRIRPPRLPRPRPRPSFVPRP", "shrunken log2 fold change": -0.509}, {"sequence": "RRIRIRPPRLPRPRPRPSGNPRP", "shrunken log2 fold change": 0.0322}, {"sequence": "RRIRIRPPRLPRPRPRPSHFPRP", "shrunken log2 fold change": -0.641}, {"sequence": "RRIRIRPPRLPRPRPRPSHHPRP", "shrunken log2 fold change": -0.941}, {"sequence": "RRIRIRPPRLPRPRPRPSKSPRP", "shrunken log2 fold change": -0.413}, {"sequence": "RRIRIRPPRLPRPRPRPSKVPRP", "shrunken log2 fold change": -1}, {"sequence": "RRIRIRPPRLPRPRPRPSLFPRP", "shrunken log2 fold change": -0.66}, {"sequence": "RRIRIRPPRLPRPRPRPSLVPRP", "shrunken log2 fold change": 0.0916}, {"sequence": "RRIRIRPPRLPRPRPRPSNGPRP", "shrunken log2 fold change": 0.0107}, {"sequence": "RRIRIRPPRLPRPRPRPSPTPRP", "shrunken log2 fold change": -0.424}, {"sequence": "RRIRIRPPRLPRPRPRPSQDPRP", "shrunken log2 fold change": -0.31}, {"sequence": "RRIRIRPPRLPRPRPRPSQKPRP", "shrunken log2 fold change": -0.187}, {"sequence": "RRIRIRPPRLPRPRPRPSQQPRP", "shrunken log2 fold change": -0.11}, {"sequence": "RRIRIRPPRLPRPRPRPSRMPRP", "shrunken log2 fold change": -0.271}, {"sequence": "RRIRIRPPRLPRPRPRPSSRPRP", "shrunken log2 fold change": -0.538}, {"sequence": "RRIRIRPPRLPRPRPRPSSSPRP", "shrunken log2 fold change": 0.148}, {"sequence": "RRIRIRPPRLPRPRPRPSSWPRP", "shrunken log2 fold change": 0.025}, {"sequence": "RRIRIRPPRLPRPRPRPSVAPRP", "shrunken log2 fold change": 0.011}, {"sequence": "RRIRIRPPRLPRPRPRPSVCPRP", "shrunken log2 fold change": -0.294}, {"sequence": "RRIRIRPPRLPRPRPRPSVFPRP", "shrunken log2 fold change": -0.219}, {"sequence": "RRIRIRPPRLPRPRPRPSVGPRP", "shrunken log2 fold change": -0.261}, {"sequence": "RRIRIRPPRLPRPRPRPSVIPRP", "shrunken log2 fold change": -0.661}, {"sequence": "RRIRIRPPRLPRPRPRPSYAPRP", "shrunken log2 fold change": -0.0605}, {"sequence": "RRIRIRPPRLPRPRPRPTATPRP", "shrunken log2 fold change": 0.0371}, {"sequence": "RRIRIRPPRLPRPRPRPTAYPRP", "shrunken log2 fold change": -0.425}, {"sequence": "RRIRIRPPRLPRPRPRPTCDPRP", "shrunken log2 fold change": -0.369}, {"sequence": "RRIRIRPPRLPRPRPRPTCRPRP", "shrunken log2 fold change": -0.103}, {"sequence": "RRIRIRPPRLPRPRPRPTCVPRP", "shrunken log2 fold change": 0.00176}, {"sequence": "RRIRIRPPRLPRPRPRPTCYPRP", "shrunken log2 fold change": -0.266}, {"sequence": "RRIRIRPPRLPRPRPRPTDYPRP", "shrunken log2 fold change": -0.223}, {"sequence": "RRIRIRPPRLPRPRPRPTEHPRP", "shrunken log2 fold change": -0.449}, {"sequence": "RRIRIRPPRLPRPRPRPTENPRP", "shrunken log2 fold change": 0.0227}, {"sequence": "RRIRIRPPRLPRPRPRPTGDPRP", "shrunken log2 fold change": 0.109}, {"sequence": "RRIRIRPPRLPRPRPRPTGYPRP", "shrunken log2 fold change": -0.73}, {"sequence": "RRIRIRPPRLPRPRPRPTHCPRP", "shrunken log2 fold change": -0.00414}, {"sequence": "RRIRIRPPRLPRPRPRPTHDPRP", "shrunken log2 fold change": -0.0575}, {"sequence": "RRIRIRPPRLPRPRPRPTHEPRP", "shrunken log2 fold change": -0.0459}, {"sequence": "RRIRIRPPRLPRPRPRPTHPPRP", "shrunken log2 fold change": 0.225}, {"sequence": "RRIRIRPPRLPRPRPRPTKAPRP", "shrunken log2 fold change": -0.162}, {"sequence": "RRIRIRPPRLPRPRPRPTKDPRP", "shrunken log2 fold change": -0.491}, {"sequence": "RRIRIRPPRLPRPRPRPTKGPRP", "shrunken log2 fold change": 0.0205}, {"sequence": "RRIRIRPPRLPRPRPRPTKMPRP", "shrunken log2 fold change": -0.116}, {"sequence": "RRIRIRPPRLPRPRPRPTKYPRP", "shrunken log2 fold change": -0.681}, {"sequence": "RRIRIRPPRLPRPRPRPTLIPRP", "shrunken log2 fold change": -0.101}, {"sequence": "RRIRIRPPRLPRPRPRPTLQPRP", "shrunken log2 fold change": 0.00305}, {"sequence": "RRIRIRPPRLPRPRPRPTMDPRP", "shrunken log2 fold change": -0.118}, {"sequence": "RRIRIRPPRLPRPRPRPTMGPRP", "shrunken log2 fold change": 0.0793}, {"sequence": "RRIRIRPPRLPRPRPRPTMPPRP", "shrunken log2 fold change": -0.22}, {"sequence": "RRIRIRPPRLPRPRPRPTPDPRP", "shrunken log2 fold change": -0.0173}, {"sequence": "RRIRIRPPRLPRPRPRPTPPPRP", "shrunken log2 fold change": 0.464}, {"sequence": "RRIRIRPPRLPRPRPRPTPRPRP", "shrunken log2 fold change": 0.466}, {"sequence": "RRIRIRPPRLPRPRPRPTQIPRP", "shrunken log2 fold change": 0.245}, {"sequence": "RRIRIRPPRLPRPRPRPTRIPRP", "shrunken log2 fold change": 0.0411}, {"sequence": "RRIRIRPPRLPRPRPRPTSPPRP", "shrunken log2 fold change": 0.118}, {"sequence": "RRIRIRPPRLPRPRPRPTWHPRP", "shrunken log2 fold change": -0.242}, {"sequence": "RRIRIRPPRLPRPRPRPTWKPRP", "shrunken log2 fold change": -0.0541}, {"sequence": "RRIRIRPPRLPRPRPRPTYLPRP", "shrunken log2 fold change": -0.463}, {"sequence": "RRIRIRPPRLPRPRPRPVANPRP", "shrunken log2 fold change": -0.109}, {"sequence": "RRIRIRPPRLPRPRPRPVCVPRP", "shrunken log2 fold change": -0.279}, {"sequence": "RRIRIRPPRLPRPRPRPVDGPRP", "shrunken log2 fold change": -0.169}, {"sequence": "RRIRIRPPRLPRPRPRPVETPRP", "shrunken log2 fold change": 0.156}, {"sequence": "RRIRIRPPRLPRPRPRPVFNPRP", "shrunken log2 fold change": -0.602}, {"sequence": "RRIRIRPPRLPRPRPRPVHNPRP", "shrunken log2 fold change": -0.357}, {"sequence": "RRIRIRPPRLPRPRPRPVIGPRP", "shrunken log2 fold change": -0.727}, {"sequence": "RRIRIRPPRLPRPRPRPVKSPRP", "shrunken log2 fold change": -0.0366}, {"sequence": "RRIRIRPPRLPRPRPRPVKTPRP", "shrunken log2 fold change": -0.0343}, {"sequence": "RRIRIRPPRLPRPRPRPVLKPRP", "shrunken log2 fold change": -0.234}, {"sequence": "RRIRIRPPRLPRPRPRPVMTPRP", "shrunken log2 fold change": -0.166}, {"sequence": "RRIRIRPPRLPRPRPRPVNTPRP", "shrunken log2 fold change": -1.06}, {"sequence": "RRIRIRPPRLPRPRPRPVPCPRP", "shrunken log2 fold change": -0.00376}, {"sequence": "RRIRIRPPRLPRPRPRPVPFPRP", "shrunken log2 fold change": -0.264}, {"sequence": "RRIRIRPPRLPRPRPRPVRGPRP", "shrunken log2 fold change": 0.413}, {"sequence": "RRIRIRPPRLPRPRPRPVRPPRP", "shrunken log2 fold change": 0.664}, {"sequence": "RRIRIRPPRLPRPRPRPVSGPRP", "shrunken log2 fold change": 0.0231}, {"sequence": "RRIRIRPPRLPRPRPRPVSMPRP", "shrunken log2 fold change": 0.0888}, {"sequence": "RRIRIRPPRLPRPRPRPVTIPRP", "shrunken log2 fold change": 0.00236}]}]}
